Assay results published in US20220226486A1 (SYNTAB THERAPEUTICS, published 2022).
Ends that are not written are not given here.

Biological target: T1, αvβ6 Integrin (human, UniProt P06756 31-1048; P18564 22-788)
T1 construct: whole, on cells; also called αvβ6 Integrin surface antigen
Assay: flow cytometry, 10 nM biotinylated binder on human tumor cell lines, Streptavidin-PerCP-Cy5.5
Procedure: The binding capability of peptides or peptidomimetics, of synthetic compounds according to the invention to different cell lines displaying particular targets was investigated by using flow cytometry. Detached cells were incubated with biotinylated peptide/peptidomimetic or biotinylated synthetic compound in blocking buffer for at least 30 min of ice. The cells were washed twice with washing buffer followed by incubation with streptavidin labeled with the Peridinin-chlorophyll protein PerCP-Cy5.5 (BD Biosciences) for 15 minutes on ice. After one additional wash step, samples were analyzed using FACS Canto (at least 10,000 cells per sample were counted) for cells which have bound the biotinylated reagent plus the streptavidin-PerCP-Cy5.5. Overlay histograms of cells incubated with peptide or control peptide were generated and the geometrical mean fluorescence of each sample was determined in FloJo. The EC50 measurements were calculated using Graph Prism software.

T1 sequence (P06756 31-1048, chain 1 of 2): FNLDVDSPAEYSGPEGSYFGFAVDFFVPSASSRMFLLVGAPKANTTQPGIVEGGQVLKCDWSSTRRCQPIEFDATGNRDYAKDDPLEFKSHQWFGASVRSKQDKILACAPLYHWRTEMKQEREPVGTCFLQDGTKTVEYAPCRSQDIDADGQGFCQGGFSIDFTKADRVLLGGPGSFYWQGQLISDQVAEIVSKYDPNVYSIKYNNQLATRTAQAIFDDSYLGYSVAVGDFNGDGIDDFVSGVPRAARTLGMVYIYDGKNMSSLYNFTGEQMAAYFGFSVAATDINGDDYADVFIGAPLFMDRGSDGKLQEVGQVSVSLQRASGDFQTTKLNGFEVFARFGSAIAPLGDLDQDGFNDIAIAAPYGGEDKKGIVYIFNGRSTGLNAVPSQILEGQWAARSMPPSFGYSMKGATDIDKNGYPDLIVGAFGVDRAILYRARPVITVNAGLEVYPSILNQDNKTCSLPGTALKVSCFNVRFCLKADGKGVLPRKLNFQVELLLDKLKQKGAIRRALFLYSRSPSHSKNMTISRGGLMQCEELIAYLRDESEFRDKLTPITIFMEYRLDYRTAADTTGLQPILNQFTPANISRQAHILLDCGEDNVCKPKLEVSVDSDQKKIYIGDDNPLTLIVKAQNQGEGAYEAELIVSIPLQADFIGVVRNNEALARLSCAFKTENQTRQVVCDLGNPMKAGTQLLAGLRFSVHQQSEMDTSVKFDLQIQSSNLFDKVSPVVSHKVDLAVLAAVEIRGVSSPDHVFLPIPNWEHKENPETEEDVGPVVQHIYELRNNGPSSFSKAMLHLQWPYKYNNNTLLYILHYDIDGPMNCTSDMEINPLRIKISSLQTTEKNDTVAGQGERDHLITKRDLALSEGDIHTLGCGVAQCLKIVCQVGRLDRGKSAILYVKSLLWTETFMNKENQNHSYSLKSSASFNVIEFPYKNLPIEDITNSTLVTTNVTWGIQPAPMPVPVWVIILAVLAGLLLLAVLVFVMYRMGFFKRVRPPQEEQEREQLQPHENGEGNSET
T1 sequence (P18564 22-788, chain 2 of 2): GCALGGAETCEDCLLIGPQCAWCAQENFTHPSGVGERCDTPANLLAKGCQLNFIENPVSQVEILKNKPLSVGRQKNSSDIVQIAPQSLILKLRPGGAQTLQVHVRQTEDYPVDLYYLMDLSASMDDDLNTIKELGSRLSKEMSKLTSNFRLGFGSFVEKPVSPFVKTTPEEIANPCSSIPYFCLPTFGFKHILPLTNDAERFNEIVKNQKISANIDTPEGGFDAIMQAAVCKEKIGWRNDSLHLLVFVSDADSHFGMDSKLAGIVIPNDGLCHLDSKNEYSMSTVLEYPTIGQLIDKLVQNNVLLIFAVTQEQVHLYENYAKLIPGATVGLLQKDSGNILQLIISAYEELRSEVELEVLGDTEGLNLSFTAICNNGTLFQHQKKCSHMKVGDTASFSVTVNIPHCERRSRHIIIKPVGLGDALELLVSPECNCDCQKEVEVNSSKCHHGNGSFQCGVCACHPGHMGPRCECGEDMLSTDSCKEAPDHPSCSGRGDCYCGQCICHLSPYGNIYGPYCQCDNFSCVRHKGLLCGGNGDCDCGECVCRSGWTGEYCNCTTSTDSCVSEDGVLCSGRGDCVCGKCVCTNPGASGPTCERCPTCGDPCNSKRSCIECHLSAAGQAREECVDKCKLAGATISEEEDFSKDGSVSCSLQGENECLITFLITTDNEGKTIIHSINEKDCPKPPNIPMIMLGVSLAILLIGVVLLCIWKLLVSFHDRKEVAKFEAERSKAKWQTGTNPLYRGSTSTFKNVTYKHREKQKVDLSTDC

binding result: binds
B1: biotinylated peptide binder SEQ ID No 2 targeting αvβ6 Integrin (peptide)
peptide: RGDLATLRQL
modifications: also: biotinylated, site not given here
notes: Synthetic peptide, biotinylated for flow cytometry
